Data reported in article PMC10987521, “An all-in-one tetrazine reagent for cysteine-selective labeling and bioorthogonal activable prodrug construction” (Nature Communications, 2024).
“Also recorded” adds a separate entry of the source. Read-outs that look alike come from different tables or passages of the source.

Legend:
[1] = Critical micelle concentration of peptide conjugates (Nile Red); format: physicochemical; settings: PBS (5% DMSO), Nile Red 1.0 μM, room temperature overnight; intersection of tangents
Method: The second-order rate constant for the labeling reactions between tetrazine 1 and Cys was determined at 25 °C in PB (30% MeCN, 20 mM, pH 8.0) under second-order conditions using a 6000+ (Quawell) UV-Vis spectrophotometer. The concentrations of cysteine and tetrazine were identical. The specific difference in absorption wavelength (300 nm) between 1 and Cys-1 was measured over time. The second-order rate constant k2 was calculated from the slope of a plot of (1/c – 1/c0) versus time.
5. Competitive labeling reaction with other nucleophilic amino acids
For the competitive labeling experiment, 10 equiv. (2 mM) of N-Fmoc-Lys, N-Fmoc-Arg, Ser, Tyr, and 1.3 equiv. […] The resulting solution was maintained at 25 °C and monitored by LC –MS. […]
Each voTz analogue (1.1 equiv.) was added to a 0.25 mL vial containing solvent. […] The chromatogram peak areas of all relevant Cys -containing species were integrated, and the yiel d was determined using the following equation: Yield (%) = Iproduct/(Istarting + Iproduct + Ioxidation + Iside product) × 100, where Istarting, Iproduct, Ioxidation, and Iside product respectively represent the average ion counts of remaining starting material, product, oxidized starting material and any side product, if present 2. […]
DLS analyses and particle zeta potential values were determined using a Nano ZS ZEN 3690 instrument (Malvern […]

Stability in FBS (serum) = format: in vitro ADME; settings: for remaining at 1 h, 50 μM / remaining at 2 h, 50 μM / remaining at 3 h, 50 μM / RGD-Dox (%): stability in the FBS; for remaining at 1 h, 50 μM / remaining at 2 h, 50 μM / remaining at 3 h, 50 μM: read-out: RGD-Dox (%)
Method: The results are shown as the mean ± SD. Source data are provided as a Source Data file. […]
Supplementary Fig. 48. Stability of RGD-Dox in the 50% FBS. RGD-Dox was diluted to a concentration of 50 μM
using 50% FBS/PBS (10% DMSO). The mixture was homogenized and incubated at 37 °C. The stability of RGD-Dox
was assessed by measuring the decrease in peak area at 520 nm (with the initial peak area at 0 min defined as 100%).
This measurement was monitored by HPLC–MS. Independent measurements were taken three times. The results are
shown as the mean ± SD. Source data are provided as a Source Data file. […]
Source data are provided as a Source Data file.

B16F10 melanoma tumor = experiment: In vivo anticancer efficacy, subcutaneous B16F10 melanoma tumor model; set-up: species or system BALB/c nude mice; settings: four i.v. courses, 3.67 μmol·kg^−1 (TCO-P4 36.7 μmol·kg^−1), n = 5
Method: Tumor-bearing mice were established by subcutaneously injecting a suspension of 5 × 10^5 B16F10 cells per mouse into the front flank of each nude mouse. When tumor volume reached 50−70 mm^3, the animals were randomly divided into five groups (n = 5). The mice were administered different compounds suspended in PBS via the tail vein every 3 days for a total of four times.
The mice underwent four treatment courses on day 0, day 3, day 6, and day 9. Tumor size and body weight were measured every day. Tumor volume was calculated via the following formula: V = 1/2 × (minor axis) × (major axis)[2].
After 12 days, the mice were sacrificed and dissected to obtain tumor tissues and main organs, including heart, liver, spleen, lung, and kidney. Subsequently, all tissues were fixed in a 4% paraformaldehyde solution, routinely paraffin-embedded and sectioned, and then stained with hematoxylin and eosin, as well as using TdT-mediated dUTP nick-end labeling (TUNEL) for subsequent pathological analysis. TUNEL-positive cells appeared fluorescent green, representing the apoptosis of tumor cells (nuclei were fluorescent blue, stained with DAPI).
13. In vivo anticancer efficacy […]
13.2 Calculation of the tumor growth inhibition values (TGI)
Tumor growth inhibition values (TGI) were calculated using the following formula: TGI (%) = (1 − RTVtreatment/
RTVcontrol)*100. RTV refers to relative tumor volume, representing the ratio of the volume at the end of treatment to the
volume at the beginning of treatment. […]

COc1cccc2c1C(=O)c1c(O)c3c(c(O)c1C2=O)C[C@@](O)(C(=O)CO)C[C@@H]3O[C@H]1C[C@H](NC(=O)OCc2nnc(CCSC[C@@H]3NC(=O)[C@@H](Cc4ccc(O)cc4)NC(=O)[C@H](CC(=O)O)NC(=O)CNC(=O)[C@H](CCCNC(=N)N)NC3=O)nn2)[C@H](O)[C@H](C)O1 [RGD-Dox]
critical micellar concentration (CMC) [1]: 3.31 µM | remaining at 5 h, 50 μM (Stability in FBS (serum); bovine, serum, 5 h, 37 °C, 50 μM in 50% FBS/PBS (10% DMSO), HPLC–MS peak area 520 nm, n = 3, read-out: intact in serum): 80% | remaining at 1 h, 50 μM (Stability in FBS (serum); bovine, serum, Data 1): 97% | remaining at 1 h, 50 μM (Stability in FBS (serum); bovine, serum, Data 3): 93% | remaining at 2 h, 50 μM (Stability in FBS (serum); bovine, serum, Data 1): 88% | remaining at 2 h, 50 μM (Stability in FBS (serum); bovine, serum, Data 3): 89% | remaining at 3 h, 50 μM (Stability in FBS (serum); bovine, serum, Data 1): 86% | remaining at 3 h, 50 μM (Stability in FBS (serum); bovine, serum, Data 2): 82% | remaining at 3 h, 50 μM (Stability in FBS (serum); bovine, serum, Data 3): 84% | RGD-Dox (%) (Stability in FBS (serum); 0 h, Data 2): 100% | RGD-Dox (%) (Stability in FBS (serum); 0 h, Data 3): 100% | RGD-Dox (%) (Stability in FBS (serum); 5 h, Data 1): 80% | RGD-Dox (%) (Stability in FBS (serum); 5 h, Data 2): 77% | RGD-Dox (%) (Stability in FBS (serum); 5 h, Data 3): 81% | tumor growth / inhibition in words (B16F10 melanoma tumor): did not exhibit significant tumor inhibition; also recorded: rapid tumor growth
